Results on 3 molecules are retold here after publication PMC4215112 (Clinical and Experimental Allergy, 2014).

In one assay the target is T1, Recombinant Aln g 1.0101 (Alnus glutinosa, isoform Aln g 1.0101, UniProt P38948).
T1 construct: By its allergen name from Alnus glutinosa (alder); source: bought: Biomay (Vienna, Austria), recombinant
Kind of assay: ELISA; allergens coated at 5 μg/mL in PBS; scFv-Fcε from HEK293 supernatant detected with HRP anti-IgE antiserum; duplicates. Conditions: one partner purified.

Assay [1] has as its target T2, Bet v 1 (isoform not stated for the experiment) (birch, UniProt P15494).
T2 construct: also called immobilized Bet v 1
The assay can be described thus: ELISA; inhibition ELISA: binding of scFv-Fcε to immobilized Bet v 1 in the presence of the identified peptides in soluble form. Conditions: one partner purified. On the technique in general: An ELISA detects its analyte on a solid surface through an enzyme-linked reagent.

T1 sequence (P38948 whole entry, looked up, canonical isoform): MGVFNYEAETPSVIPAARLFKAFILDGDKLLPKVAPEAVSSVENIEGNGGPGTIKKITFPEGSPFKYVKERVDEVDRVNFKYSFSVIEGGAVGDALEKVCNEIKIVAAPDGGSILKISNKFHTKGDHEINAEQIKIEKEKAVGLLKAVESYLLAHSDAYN

B1: M0418 scFv-Fcε fusion protein (Fc fusion, human)
VH: QVQLVQSGAEVKKPGESLKISCKGSEYSFPNYWIAWVRQMPGKGLEWMGMIYPGDSDTRYSPSFQGQVNISADKSSRTAFLEWSSLKASDSATYFCARLGGQLWNSYYYYYYMDVWGKGTTVTVSS
VL: SYELTQPPSASGTPGQRVTISCSGSSSNIGGNTVNWYQQVPGTAPRLLIYKNNQRPSGVPDRFSGSKSGTSASLAISGLRSEDEADYYCEAWDGGLRGGVFGGGTKLTVL
notes: as the VH of m14; (Gly4Ser)3 linker as told for the M0418 scFv construct, written out from the printed formula; as the VL of m14; also called the M0418 construct; IgE clone M0418; source: HEK293, transfected, in filtered supernatant; not shown: Fc (human IgE, second, third and fourth constant domains, CHε2-4), C-terminal, kept
With B1, the figures for the binding result (with Recombinant Aln g 1.0101; in assay [1]) were “no binding” and “binds”, respectively.

B2: B13 scFv-Fcε fusion protein (Fc fusion)
VH: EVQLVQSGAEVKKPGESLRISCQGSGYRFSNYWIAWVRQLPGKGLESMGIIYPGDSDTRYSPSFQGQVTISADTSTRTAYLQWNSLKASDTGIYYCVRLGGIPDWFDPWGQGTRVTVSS
VL: SYELTQPPSVSGSPGQSVTISCTGTSSDVGGYNLVSWYQQHPGKAPRLMIYEDTKRPSGVSHRFSGSKSGNTASLTISGLQAEDEADYYCYSYATGRPSRLFGGGTKLTVL
notes: as the VH of m12; as the VL of m12; also called B13 scFv-CHε2-4 fusion protein; source: HEK293, transfected, in filtered supernatant; not shown: Fc (human IgE, second, third and fourth constant domains, CHε2-4), C-terminal, kept
On to B2, for which the binding result in assay [1] is “binds”.

B3: B14 scFv-Fcε fusion protein (Fc fusion, human)
VH: EVQLVQSGAEVKKPGESLKISCKGSEYSFPNYWIAWVRQMPGKGLEWMGMIYPGDSDTRYSPSFQGQVNISADKSSRTAFLEWSSLKASDSATYFCARLGGQLWNSYYYYYMDVWGKGTTVTVSS
VL: QSVLTQPPSVSVSPGQTARITCSGDKLGNKYAAWYQQKPGQSPVLVIYQDSKRPSGIPERFSGSNSGNTATLTISGTQAMDEADYYCQAWDSSTFYVFGTGTKLTVL
notes: as the VH of m13; as the VL of m13; also called B14 scFv-CHε2-4 fusion protein; source: HEK293, transfected, in filtered supernatant; not shown: Fc (human IgE, second, third and fourth constant domains, CHε2-4), C-terminal, kept
As for B3, the binding result in assay [1] is reported as “binds”.
